Laboratory results from paper PMC3805550.

Molecular target: F-actin from chicken pectoral (skeletal) muscle (chicken) (UniProt P68139)
Assay: co-sedimentation; 5 uM F-actin with 0.1-6 uM AS-Cdc8p, 20 mM MOPS pH 7.0, 150 mM NaCl, 2 mM MgCl2, 20 C, 60,000 rpm 30 min; pellets and supernatants on SDS-PAGE, densitometry; Hill equation fit, apparent constant (Kapp)

Ka: 6.3e+06 M⁻¹
Substance: AS-Cdc8p wildtype (Ala-Ser-Cdc8p, S. pombe tropomyosin with AlaSer at the N terminus) (natural protein)
